# Experimental data: doi:10.1101/2022.07.16.500195 (bioRxiv, 2022)
# Like-named read-outs stand apart in the source and are kept apart here.
# B1: PulLCTD (C-terminal domain of PulL, residues 312-398) (domain or fragment, Klebsiella oxytoca)
# chain: SNAGARPALISRLGALQQIIDDTPGIRLRTLSFDAARNALQLEISAVSSQALEQFSQRARARFRVQTGEMKPRADGIEGRLTLEGNDA
# B2: PulMCTD (C-terminal domain of PulM, residues 79-161) (domain or fragment, Klebsiella oxytoca)
# chain: SPEEPSTVIMREAARHGLTIVRLQPQGSRLSLTVQPADFQALMAWLDALGQAGMTTATLAVTAVAQQPGWVTVNTLVLERSDEK
# Experiments:
# [1] = molecular target: B2; assay: NMR titration
# AUC + other: NMR = molecular target: the molecule itself; assay: AUC + other: NMR
# [2] = molecular target: the molecule itself
# [3] = molecular target: B1; assay: native MS
Binder,stoichiometry N [1] [PulLCTD per PulMCTD],stoichiometry N (AUC + other: NMR),stoichiometry N [2],binding result [3]
B1,1,2,–,–
B2,–,–,2,binds
